Response data for one variant are collected here from PMC4670726 (2015).

To fix the notation:
B1: JIP1, full length, YFP fragment F1 fusion (BiFC) [not stated] / F2-JNK1 (K55R) (BiFC) [human] (parent complex)
chain 1: MAERESGGLGGGAASPPAASPFLGLHIASPPNFRLTHDISLEEFEDEDLSEITDECGISLQCKDTLSLRPPRAGLLSAGGGGAGSRLQAEMLQMDLIDATGDTPGAEDDEEDDDEERAARRPGAGPPKAESGQEPASRGQGQSQGQSQGPGSGDTYRPKRPTTLNLFPQVPRSQDTLNNNSLGKKHSWQDRVSRSSSPLKTGEQTPPHEHICLSDELPPQSGPAPTTDRGTSTDSPCRRSTATQMAPPGGPPAAPPGGRGHSHRDRIHYQADVRLEATEEIYLTPVQRPPDAAEPTSAFLPPTESRMSVSSDPDPAAYPSTAGRPHPSISEEEEGFDCLSSPERAEPPGGGWRGSLGEPPPPPRASLSSDTSALSYDSVKYTLVVDEHAQLELVSLRPCFGDYSDESDSATVYDNCASVSSPYESAIGEEYEEAPRPQPPACLSEDSTPDEPDVHFSKKFLNVFMSGRSRSSSAESFGLFSCIINGEEQEQTHRAIFRFVPRHEDELELEVDDPLLVELQAEDYWYEAYNMRTGARGVFPAYYAIEVTKEPEHMAALAKNSDWVDQFRVKFLGSVQVPYHKGNDVLCAAMQKIATTRRLTVHFNPPSSCVLEISVRGVKIGVKADDSQEAKGNKCSHFFQLKNISFCGYHPKNNKYFGFITKHPADHRFACHVFVSEDSTKALAESVGRAFQQFYKQFVEYTCPTEDIYLE
chain 2: MSRSKRDNNFYSVEIGDSTFTVLKRYQNLKPIGSGAQGIVCAAYDAILERNVAIRKLSRPFQNQTHAKRAYRELVLMKCVNHKNIIGLLNVFTPQKSLEEFQDVYIVMELMDANLCQVIQMELDHERMSYLLYQMLCGIKHLHSAGIIHRDLKPSNIVVKSDCTLKILDFGLARTAGTSFMMTPYVVTRYYRAPEVILGMGYKENVDLWSVGCIMGEMVCHKILFPGRDYIDQWNKVIEQLGTPCPEFMKKLQPTVRTYVENRPKYAGYSFEKLFPDVLFPADSEHNKLKASQARDLLSKMLVIDASKRISVDEALQHPYINVWYDPSEAEAPPPKIPDKQLDEREHTIEEWKELIYKEVMDLEERTKNGVIRGQPSPLGAAVINGSQHPSSSSSVNDVSSMSTDPTLASDTDSSLEAAAGPLGCCR

The experiment covers variants of B1. Put plainly: BiFC (bimolecular fragment complementation), fluorescence measurement on co-transfected HEK293 cell populations; live HEK293 cells, transient co-transfection, N = 6; read off a plot.
On to chain 1 R160A, chain 1 P161A, chain 1 L164A, chain 1 L166A, for which the response is roughly 1700 arbitrary units.
